This note sets out measurements from patent US20260176378A1 (DYAX, published 2026).

Assay [1] has as its target T1, human plasma kallikrein (human, UniProt P03952 20-390; P03952 391-638).
T1 construct: two disulfide-linked chains; NP_000883.2; also called pKal; hpKal
The experiment in a line: ELISA, biotinylated pKal signal over streptavidin background.

Assay [2] concerns the target T1, human plasma kallikrein. The assay is described as above. The source holds these as a separate data set.

Like-named read-outs stand apart in the source and are kept apart here.

T1 sequence (P03952 20-390 limits assumed, chain 1 of 2): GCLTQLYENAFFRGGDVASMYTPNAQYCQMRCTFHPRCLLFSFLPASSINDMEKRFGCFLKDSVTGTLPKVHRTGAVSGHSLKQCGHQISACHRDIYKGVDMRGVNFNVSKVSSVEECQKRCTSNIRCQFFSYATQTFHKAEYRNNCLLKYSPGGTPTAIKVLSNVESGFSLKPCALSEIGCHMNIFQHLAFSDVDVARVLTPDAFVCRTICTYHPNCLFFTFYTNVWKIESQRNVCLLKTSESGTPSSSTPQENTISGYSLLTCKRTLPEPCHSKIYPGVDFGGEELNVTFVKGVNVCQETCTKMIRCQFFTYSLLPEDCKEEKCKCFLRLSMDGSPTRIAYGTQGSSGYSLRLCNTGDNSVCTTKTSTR
T1 sequence (P03952 391-638 limits assumed, chain 2 of 2): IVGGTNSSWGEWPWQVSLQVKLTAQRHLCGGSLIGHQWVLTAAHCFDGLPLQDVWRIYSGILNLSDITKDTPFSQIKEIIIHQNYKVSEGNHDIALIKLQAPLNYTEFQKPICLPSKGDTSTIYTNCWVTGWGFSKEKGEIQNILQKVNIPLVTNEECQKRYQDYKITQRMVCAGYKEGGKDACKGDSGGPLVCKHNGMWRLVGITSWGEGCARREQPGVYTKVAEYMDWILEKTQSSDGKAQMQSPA

B1: M29-E09 (Fab, V domains shown)
VH: EVQLLESGGGLVQPGGSLRLSCAASGFTFSWYEMGWVRQAPGKGLEWVSSIYSSGGGTMYADSVKGRFTISRDNSKNTLYLQMNSLRAEDTAVYYCARNPQYSGYDRSLSDGAFDIWGQGTMVTVSS
VL: QYELTQPPSVSVSPGQTATITCSGDNLGNKYNSWYQQKPGQSPLLVIYQDTKRPSAIPERFSGSNSGNTATLTISGTQAMDEADYYCQAWDGNVVFGGGTKLTVL
With B1, in the assay with human plasma kallikrein [1], the “ELISA (T/B)” value is 28.8.

B2: M73-D06 (Fab, V domains shown)
VH: EVQLLESGGGLVQPGGSLRLSCAASGFTFSRYEMYWVRQAPGKGLEWVSSISSSGGPTAYADSVKGRFTISRDNSKNTLYLQMNSLRAEDTAMYYCAKGTPKWELLLRSIYIENAFDIWGQGTMVTVSS
VL: QSELTQPPSASETPGQRVTISCSGSSSNIGSNTVSWFQQLPGSAPRLLIYNDHRRPSGVPDRFSGSKSGTSASLVISGLQSQDEADYYCSAWDDSLNGVVFGGGTKLTVL
On to B2, for which the “ELISA (T/B)” value in the assay with human plasma kallikrein [1] stood at 4.

B3: M27-E05 (Fab, V domains shown)
VH: EVQLLESGGGLVQPGGSLRLSCAASGFTFSWYLMIWVRQAPGKGLEWVSYIYPSGGFTYYADSVKGRFTISRDNSKNTLYLQMNSLRAEDMAVYYCARTEGPLSWGYGMDVWGQGTTVTVSS
VL: not shown
Take B3: the “ELISA (T/B)” value with human plasma kallikrein [1] amounted to 41.3.

B4: M38-F02 (Fab, V domains shown)
VH: EVQLLESGGGLVQPGGSLRLSCAASGFTFSYYMMVWVRQAPGKGLEWVSYIYSSGGHTVYADSVKGRFTISRDNSKNTLYLQMNSLRAEDTAVYYCARDLFLYDFWSKGAFDIWGQGTMVTVSS
VL: QSVLTQPPSVSVSPGQTASITCSGEKLGDKYVSWYQQKPGQSPSLVICEDSRRPSGIPERFSGSNSGNTATLTISGAQPMDEADYYCQAWDSSTAIFGPGTKVTVL
On to B4, for which the “ELISA (T/B)” value with human plasma kallikrein [1] is 33.5.

B5: M110-C12 (Fab, V domains shown)
VH: EVQLLESGGGLVQPGGSLRLSCAASGFTFSYYEMDWVRQAPGKGLEWVSGISSSGGHTAYADSVKGRFTISRDNSKNTLYLQMNSLRAEDTATYYCARERRSSSRARYYYGMDVWGQGTTVTVSS
VL: DIQMTQSPLSLSVTPGEPASISCRSSLSLLHSNGYNYLDWYVQRPGQSPQLLMYLSSTRASGVPDRFSGSGSGTDFTLEISRVEAEDVGVYYCMQPLETPPTFGGGTKVEIK
Turning to B5, in the assay with human plasma kallikrein [1], the “ELISA (T/B)” value is 2.4.

B6: M76-D01 (Fab, V domains shown)
VH: EVQLLESGGGLVQPGGSLRLSCAASGFTFSFYAMHWVRQAPGKGLEWVSGIVPSGGRTHYADSVKGRFTISRDNSKNTLYLQMNSLRAEDTAVYYCATDSSGSPNPLFDYWGQGTLVTVSS
VL: DIVMTQTPPSLPVNPGEPASISCRSSQSLSDDGNTYLDWYLQRPGQSPQLLIHTLSYRASGVPDRFSGSGSGTDFTLKISRVEAEDVGVYYCMQGTHWPPTFGQGTKVEIK
With B6, in the assay with human plasma kallikrein [1], the “ELISA (T/B)” value came to 11.2.

B7: M7-B04 (Fab, V domains shown)
VH: EVQLLESGGGLVQPGGSLRLSCAASGFTFSWYSMVWVRQAPGKGLEWVSSISPSGGLTNYADSVKGRFTISRDNSKNTLYLQMNSLRAEDTAVYYCARHTAARPFYYYYMDVWGKGTTVTVSS
VL: QSALTQPASVSGSPGQSITISCTGTNSDVGNYNLVSWYQQHPGEAPKLLIYEVNKRPSGVSNRFSGSKSGNTASLTISGLQAEDEADYLCCSYAGNRNFYVFGAGTKVTVL
As for B7, in the assay with human plasma kallikrein [1], the “ELISA (T/B)” value was 4.1.

B8: M11-G09 (Fab, V domains shown)
VH: EVQLLESGGGLVQPGGSLRLSCAASGFTFSLYNMTWVRQAPGKGLEWVSYIYPSGGGTHYADSVKGRFTISRDNSKNTLYLQMNSLRAEDTAVYYCARDTGFWSADAFDIWGQGTMVTVSS
VL: DIQMTQSPSSLSASVGDRVTITCRTSQGINHYLNWYQQKPGKAPKILVFAASELQTGVPSRFSGTGSGTSYTLTITSLQPEDVATYYCQQTYTSPYTFGQGTKLEVK
As for B8, the “ELISA (T/B)” value in the assay with human plasma kallikrein [2] is 23.6.

B9: M35-G04 (Fab, V domains shown)
VH: EVQLLESGGGLVQPGGSLRLSCAASGFTFSYYHMSWVRQAPGKGLEWVSVISPSGGSTKYADSVKGRFTISRDNSKNTLYLQMNSLRAEDTAVYYCARGGSSDYAWGSYRRPYYFDYWGQGTLVTVSS
VL: DIQMTQSPATLSLSPGERATLSCRASQSVSSYLAWYQQKPGQAPRLLIYDASNRATGIPARFSGSGSGTDFTLTISSLEPEDFAVYYCQQRSNWPRGFTFGPGTKVDIK
notes: also called 559A-M35-G04; 559A-M0035-G04
As to B9, the “ELISA (T/B)” value with human plasma kallikrein [1] stood at 11.1.

B10: M145-D01 (Fab, V domains shown)
VH: EVQLLESGGGLVQPGGSLRLSCAASGFTFSYYHMSWVRQAPGKGLEWVSVISPSGGSTKYADSVKGRFTISRDNSKNTLYLQMNSLRAEDTAVYYCARGGSSDYAWGSYRRPYYFDYWGQGTLVTVSS
VL: DIQMTQSPATLSLSPGERATLSCRASQSVSSYLAWYQQKPGQAPRLLIYDASNRATGIPARFSGSGSGTDFTLTISSLEPEDFAVYYCQQRSNWPRGFTFGPGTKVDIK
In the case of B10, in the assay with human plasma kallikrein [1], the “ELISA (T/B)” value worked out at 6.2.

B11: M137-E12 (Fab, V domains shown)
VH: EVQLLESGGGLVQPGGSLRLSCAASGFTFSDYRMQWVRQAPGKGLEWVSVIVPSGGNTMYADSVKGRFTISRDNSKNTLYLQMNSLRAEDTAVYYCARGGPGSSIAARRAPTGYYGMDVWGQGTTVTVSS
VL: QSVLIQPPSVSGIPGQRVTISCSGNNSNFGSNTVTWYQQLPGTAPKLLIYSDSRRPSGVPDRFSGSRSDTSASLAISGLQSEDEAEYHCAAWDDSLNGVFGGGTKLTVL
For the molecule B11, in the assay with human plasma kallikrein [1], the “ELISA (T/B)” value was 4.5.

B12: M29-D09 (Fab, V domains shown)
VH: EVQLLESGGGLVQPGGSLRLSCAASGFTFSWYTMVWVRQAPGKGLEWVSYIYPSGGATFYADSVKGRFTISRDNSKNTLYLQMNSLRAEDTAVYYCAMGSYDYIWGFYSDHWGQGTLVTVSS
VL: QSALTQPPTVSVSPGQTARITCSGNKLGDKYVAWYQQKPGQSPMLVIYQDTKRPSRVSERFSGSNSANTATLSISGTQALDEADYYCQAWDSSIVIFGGGTRLTVL
notes: also called 559A-M29-D09 (sFab); 559A-M0029-D09
Take B12: the “ELISA (T/B)” value with human plasma kallikrein [1] amounted to 47.5.

B13: M142-H08 (antibody, V domains shown)
VH: EVQLLESGGGLVQPGGSLRLSCAASGFTFSAYSMIWVRQAPGKGLEWVSYIRPSGGRTTYADSVKGRFTISRDNSKNTLYLQMNSLRAEDTAVYYCARGGLLLWFRELKSNYFDYWGQGTLVTVSS
VL: DIQMTQSPSSLSAFVGDRVTITCRASQPIDNYLNWYHQKPGKAPKLLIYAASRLQSGVPSRLSGSGFGTDFTLTISSLQPEDFGNYYCQQSYTVPYTFGGGTKVEIR
notes: tested as Fab (Ki,app) and as human IgG (SPR); the IgG is cleaved in HC CDR3 after WFR
Consider B13, for which, in the assay with human plasma kallikrein [1], the “ELISA (T/B)” value came out at 29.9.

B14: M41-A11 (Fab, V domains shown)
VH: EVQLLESGGGLVQPGGSLRLSCAASGFTFSHYRMSWVRQAPGKGLEWVSSIYPSGGRTVYADSVKGRFTISRDNSKNTLYLQMNSLRAEDTAVYYCAKDKFEWRLLFRGIGNDAFDIWGQGTMVTVSS
VL: QSVLTQPPSVSVSPGQTASITCSGDKLGDKYTSWYQQRPGQSPVLVIYQDIKRPSGIPERFSGSNSGNTATLTISGTQAMDEADYYCQAWDSPNARVFGSGTKVTVL
Regarding B14, the “ELISA (T/B)” value with human plasma kallikrein [1] came out at 28.

B15: M145-D11 (Fab, V domains shown)
VH: EVQLLESGGGLVQPGGSLRLSCAASGFTFSHYRMSWVRQAPGKGLEWVSSIYPSGGRTVYADSVKGRFTISRDNSKNTLYLQMNSLRAEDTAVYYCAKDKFEWRLLFRGIGNDAFDIWGQGTMVTVSS
VL: QSVLTQPPSVSVSPGQTASITCSGDKLGDKYTSWYQQRPGQSPVLVIYQDIKRPSGIPERFSGSNSGNTATLTISGTQAMDEADYYCQAWDSPNARVFGSGTKVTVL
notes: also called 559A-M145-D11 (sFab); 559A-M0145-D11
In the case of B15, the “ELISA (T/B)” value with human plasma kallikrein [1] amounted to 40.
